# Data: the supplement of paper PMC7125110
# ± gives the standard error. Fewer inactive variants are shown than the library holds.
# B1: glmS ribozyme (parent)
# chain: AUAAAAGCGCCAGAACUACAGAAAUGUAGUUGACGAGGAGGAGGUUUAUCGAAUUUUCGGCGGAUGCCUCCAAA
# Key:
# Details in all cases: with glucosamine-6-phosphate
# glucosamine-6-phosphate [1] = variants of: B1; experiment: self-cleavage kobs at 640 uM GlcN6P; higher = faster cleavage; RNA array
# Outline: (§1)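 Sequenced MiSeq chips were the platform: E. coli RNA polymerase transcribed barcoded ribozyme variants on them in situ, and a hybridised Cy3 probe tracked these at 37 °C. After glucosamine-6-phosphate (40 μM to 10 mM) in HEPES/KCl/Mg(OAc)2 buffer was flowed in, tiles were imaged over ~14 h. Signals normalised to baseline and to non-cleaving reference variants were reduced to per-tile medians and fit to one- or two-exponential decays to obtain kobs. kcat and KM were derived through weighted Michaelis–Menten fits across concentrations.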
# glucosamine-6-phosphate [2] = variants of: B1; experiment: self-cleavage kobs at 2500 uM GlcN6P; higher = faster cleavage; RNA array
# Outline: as §1
# glucosamine-6-phosphate [3] = variants of: B1; experiment: self-cleavage kobs at 10000 uM GlcN6P; higher = faster cleavage; RNA array
# Outline: as §1
Variant,self-cleavage kobs at 640 uM GlcN6P (glucosamine-6-phosphate [1]),self-cleavage kobs at 2500 uM GlcN6P (glucosamine-6-phosphate [2]),self-cleavage kobs at 10000 uM GlcN6P (glucosamine-6-phosphate [3])
C34U U57A,< 1e-05 s⁻¹,< 1e-05 s⁻¹,
C8A G29C A36C G63A,< 1e-05 s⁻¹,,
G37C G40C U49A,< 1e-05 s⁻¹,< 1e-05 s⁻¹,
A42C U49C C58U,< 1e-05 s⁻¹,< 1e-05 s⁻¹,
G37C A53C G60A,< 1e-05 s⁻¹,,
C50U C67A,6.32e-05 ± 2.1e-05 s⁻¹,,
G13U A14G G29C U49A,< 1e-05 s⁻¹,,
C11A A15G G29A,< 1e-05 s⁻¹,,
U31G G44U U46G C58A,< 1e-05 s⁻¹,,
C11A G63A,< 1e-05 s⁻¹,< 1e-05 s⁻¹,< 1e-05 s⁻¹
A15C U31C A33G G38A,< 1e-05 s⁻¹,,< 1e-05 s⁻¹
C11G A14U A36U U46A C61G G63A,< 1e-05 s⁻¹,< 1e-05 s⁻¹,
C11U A36C A39G C67G,< 1e-05 s⁻¹,< 1e-05 s⁻¹,
A14C A36C G51U C61A G63U C67U,8.43e-05 ± 3.9e-05 s⁻¹,5.16e-05 ± 1.9e-05 s⁻¹,
U47A G60C U69C,0.00785 ± 0.0036 s⁻¹,,
G7C A39C G40C G44U,< 1e-05 s⁻¹,,
C10U C50G C68U C71A,9.29e-05 ± 2.6e-05 s⁻¹,0.000111 ± 2.9e-05 s⁻¹,
A12U A15G U47G,0.00207 ± 0.00042 s⁻¹,,
G7A G37A G60U A64U,< 1e-05 s⁻¹,,
A52G C61G U69A,0.000109 ± 4.4e-05 s⁻¹,5.25e-05 ± 2.2e-05 s⁻¹,
G35U U45G C61A,< 1e-05 s⁻¹,< 1e-05 s⁻¹,
A15U A33G G44U A48U,< 1e-05 s⁻¹,< 1e-05 s⁻¹,< 1e-05 s⁻¹

Variant,self-cleavage kobs at 640 uM GlcN6P (glucosamine-6-phosphate [1]),self-cleavage kobs at 2500 uM GlcN6P (glucosamine-6-phosphate [2]),self-cleavage kobs at 10000 uM GlcN6P (glucosamine-6-phosphate [3])
G7A A12G U31A C68G,0.000116 ± 3.5e-05 s⁻¹,,
G9C G29C A52U C70U,< 1e-05 s⁻¹,< 1e-05 s⁻¹,< 1e-05 s⁻¹
G9U C16G G29U G40U G41A G66U,< 1e-05 s⁻¹,< 1e-05 s⁻¹,
G7C A36U C67G,< 1e-05 s⁻¹,< 1e-05 s⁻¹,< 1e-05 s⁻¹
A6G G43A C68A,< 1e-05 s⁻¹,,
C50G A52U,< 1e-05 s⁻¹,,< 1e-05 s⁻¹
G13U G37C U56C C67A C71U,< 1e-05 s⁻¹,,
C16G G51A A64U,< 1e-05 s⁻¹,,
G38C G41U C67U,< 1e-05 s⁻¹,,
U30G U31G U49G U69G,7.71e-05 ± 2.2e-05 s⁻¹,6.45e-05 ± 2.7e-05 s⁻¹,
A6G G37U U47G C50G C58G C67A,7e-05 ± 2.9e-05 s⁻¹,,
A14U C67U C68G,0.000113 ± 3.4e-05 s⁻¹,,
U30G U46C U47G,8.33e-05 ± 2.2e-05 s⁻¹,,
U30G C34U G35A C68A,0.00169 ± 0.00067 s⁻¹,,
A12U C67G C71A,< 1e-05 s⁻¹,,
A33G A39G G41A,< 1e-05 s⁻¹,,
U30G G37A,9.32e-05 ± 2.2e-05 s⁻¹,0.000172 ± 4.2e-05 s⁻¹,0.000734 ± 0.00011 s⁻¹
G9U G44C C58A,< 1e-05 s⁻¹,,
A48G C50G C58G,0.000184 ± 8.1e-05 s⁻¹,,
C11A G38U A39U G60A,< 1e-05 s⁻¹,< 1e-05 s⁻¹,
C34U G44A A48U U56A G60A,< 1e-05 s⁻¹,,
A12U U30A G38U,< 1e-05 s⁻¹,,

Variant,self-cleavage kobs at 640 uM GlcN6P (glucosamine-6-phosphate [1]),self-cleavage kobs at 2500 uM GlcN6P (glucosamine-6-phosphate [2]),self-cleavage kobs at 10000 uM GlcN6P (glucosamine-6-phosphate [3])
G41A U54A,0.000113 ± 2.9e-05 s⁻¹,0.000311 ± 8.8e-05 s⁻¹,0.000101 ± 2.1e-05 s⁻¹
U30A A42C C71U,< 1e-05 s⁻¹,,
C10G A12C G13A A14G A39U C70G,< 1e-05 s⁻¹,,
C11G U31A U47C C61G,< 1e-05 s⁻¹,< 1e-05 s⁻¹,
U31G G37C G38C,< 1e-05 s⁻¹,< 1e-05 s⁻¹,
A52G U56G,0.000309 ± 5.9e-05 s⁻¹,0.000536 ± 0.00011 s⁻¹,0.0014 ± 0.00025 s⁻¹
A14U U30G G40A,0.000126 ± 3.6e-05 s⁻¹,0.000424 ± 0.00014 s⁻¹,
A6U G37C G38A C71A,< 1e-05 s⁻¹,,
U31G G32U A53U A64G,0.000197 ± 6.1e-05 s⁻¹,,
U45A C58A C71U,0.000102 ± 2.9e-05 s⁻¹,0.000293 ± 8.3e-05 s⁻¹,
C11U G38A C67G,7.1e-05 ± 3.3e-05 s⁻¹,,
C10U A39U G41U,< 1e-05 s⁻¹,,
A6U C11G C68A C70G,< 1e-05 s⁻¹,< 1e-05 s⁻¹,
A6G G7U U31C A36C,< 1e-05 s⁻¹,< 1e-05 s⁻¹,
A12G U57A G60U,< 1e-05 s⁻¹,< 1e-05 s⁻¹,< 1e-05 s⁻¹
U56C A64C,< 1e-05 s⁻¹,,
U30C G32C C58A,3.93e-05 ± 1.5e-05 s⁻¹,,
U31G G62A,< 1e-05 s⁻¹,,
G35A G38U A42C U55C,< 1e-05 s⁻¹,,
A15C C34U G66C,< 1e-05 s⁻¹,< 1e-05 s⁻¹,
A6C G7A G29A C71U,< 1e-05 s⁻¹,< 1e-05 s⁻¹,
G13U U56C A64G,< 1e-05 s⁻¹,,
